In US20220381793A1, “COMPOSITIONS AND METHODS FOR IDENTIFYING MHC-II BINDING PEPTIDES” (priority 2021, published 2022):

Columns and labels:
[1] = biological target: T1, “empty” DR4 (DRA*01:01/DRB1*04:01) on yeast (Homo sapiens, UniProt P01903+P01911); assay: RIPPA competition assay, yeast displaying “empty” DR4, SARS-CoV-2 S peptides; assay type: binding; conditions: 200 μM competitor vs 20 μM Bio-HA306-318, pH 5.0, 30° C., 20 hours
T1 construct: the α chain ectodomain, with or without the Jun motif, was designed to be secreted from yeast; the DR4 β chain ectodomain, with or without the Fos motif, was engineered to the upstream of yeast AGA2 gene; Syn-pre-pro leader (secretion leader) (N); expressed in transfected cells; host or cells: Saccharomyces cerevisiae EBY100, surface display via Aga1p/Aga2p
T1 sequence (P01903 with tags, fused parts or gaps): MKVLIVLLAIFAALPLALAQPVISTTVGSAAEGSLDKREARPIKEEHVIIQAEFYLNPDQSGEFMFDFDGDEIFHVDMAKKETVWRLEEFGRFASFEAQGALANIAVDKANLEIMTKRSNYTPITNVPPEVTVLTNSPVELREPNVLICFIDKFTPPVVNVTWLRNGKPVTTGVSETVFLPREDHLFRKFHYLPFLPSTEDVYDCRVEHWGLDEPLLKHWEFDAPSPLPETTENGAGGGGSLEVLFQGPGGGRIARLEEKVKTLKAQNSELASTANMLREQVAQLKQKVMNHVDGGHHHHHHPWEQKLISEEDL
T1 sequence (P01911 with tags, fused parts or gaps with the stated changes): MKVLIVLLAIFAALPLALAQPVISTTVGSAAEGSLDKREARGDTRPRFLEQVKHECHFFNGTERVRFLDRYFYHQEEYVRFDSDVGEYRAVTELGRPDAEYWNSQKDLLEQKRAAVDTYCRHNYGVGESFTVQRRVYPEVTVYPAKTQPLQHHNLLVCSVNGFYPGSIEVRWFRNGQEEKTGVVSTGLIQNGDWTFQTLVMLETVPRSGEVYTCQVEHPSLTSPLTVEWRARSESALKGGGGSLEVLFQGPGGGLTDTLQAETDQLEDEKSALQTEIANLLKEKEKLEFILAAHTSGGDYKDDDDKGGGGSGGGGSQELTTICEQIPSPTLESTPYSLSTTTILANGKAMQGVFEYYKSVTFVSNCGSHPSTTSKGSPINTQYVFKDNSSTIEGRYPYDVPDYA
T1 sequence (P32323 25-725 partner): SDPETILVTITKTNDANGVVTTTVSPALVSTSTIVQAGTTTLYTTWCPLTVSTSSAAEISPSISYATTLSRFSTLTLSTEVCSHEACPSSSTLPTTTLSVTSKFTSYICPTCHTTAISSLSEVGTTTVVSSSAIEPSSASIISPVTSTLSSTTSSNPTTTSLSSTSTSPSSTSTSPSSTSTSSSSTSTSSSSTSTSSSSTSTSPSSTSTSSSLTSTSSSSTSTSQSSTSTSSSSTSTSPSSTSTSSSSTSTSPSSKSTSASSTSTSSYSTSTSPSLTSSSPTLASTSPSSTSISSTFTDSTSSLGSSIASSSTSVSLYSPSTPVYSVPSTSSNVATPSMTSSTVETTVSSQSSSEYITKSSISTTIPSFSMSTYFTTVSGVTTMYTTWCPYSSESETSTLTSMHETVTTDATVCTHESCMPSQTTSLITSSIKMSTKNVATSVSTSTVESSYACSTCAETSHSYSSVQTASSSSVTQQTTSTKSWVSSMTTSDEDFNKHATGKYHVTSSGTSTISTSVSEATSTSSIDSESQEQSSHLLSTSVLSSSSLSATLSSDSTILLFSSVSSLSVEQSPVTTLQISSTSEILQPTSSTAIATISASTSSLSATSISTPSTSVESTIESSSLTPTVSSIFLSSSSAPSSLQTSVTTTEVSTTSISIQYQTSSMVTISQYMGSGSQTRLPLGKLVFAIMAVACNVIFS

[2] = biological target: T2, “empty” DQ6 (DQA1*01:02/DQB1*06:02) on yeast (Homo sapiens, UniProt P01909+P01920); assay: RIPPA competition assay, yeast displaying “empty” DQ6, HCRT 15-mer peptides; assay type: binding; conditions: for DQ6 binding (in words): method not given, possible false positives
T2 construct: A PCR fragment carrying the extracellular domain of HLA-DQA1*0102 with C-terminal Fos was cloned into ptDR1; A second PCR fragment carrying the extracellular domain of HLA-DQB1*0602 with C-terminal Jun was cloned into pDQ6α; Syn-pre-pro leader (secretion leader) (N); expressed in transfected cells; host or cells: Saccharomyces cerevisiae EBY100, surface display via Aga1p/Aga2p
T2 sequence (P01909 with tags, fused parts or gaps with the stated changes): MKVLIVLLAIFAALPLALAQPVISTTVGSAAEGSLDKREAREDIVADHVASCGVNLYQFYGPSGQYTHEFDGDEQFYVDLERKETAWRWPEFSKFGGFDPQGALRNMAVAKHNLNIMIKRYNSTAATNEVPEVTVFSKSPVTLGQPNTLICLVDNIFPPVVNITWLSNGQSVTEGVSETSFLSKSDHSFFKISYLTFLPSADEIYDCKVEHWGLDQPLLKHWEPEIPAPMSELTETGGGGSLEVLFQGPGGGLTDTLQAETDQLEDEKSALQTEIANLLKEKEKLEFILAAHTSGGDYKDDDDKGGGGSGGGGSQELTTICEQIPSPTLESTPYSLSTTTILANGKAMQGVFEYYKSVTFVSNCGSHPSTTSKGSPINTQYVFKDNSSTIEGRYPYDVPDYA
T2 sequence (P01920 with tags, fused parts or gaps with the stated changes): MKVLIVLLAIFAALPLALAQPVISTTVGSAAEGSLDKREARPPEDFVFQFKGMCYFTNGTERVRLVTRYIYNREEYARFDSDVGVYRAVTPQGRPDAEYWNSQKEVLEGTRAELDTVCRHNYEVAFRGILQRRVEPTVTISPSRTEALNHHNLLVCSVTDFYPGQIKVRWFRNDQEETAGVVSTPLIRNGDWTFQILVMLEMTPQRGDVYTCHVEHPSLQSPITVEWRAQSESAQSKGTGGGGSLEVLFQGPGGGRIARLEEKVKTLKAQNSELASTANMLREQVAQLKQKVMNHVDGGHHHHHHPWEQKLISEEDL
T2 sequence (P32323 25-725 partner): as the sequence (P32323 25-725 partner) above
Experimental: FIGS. 4A-4C. RIPPA identified all DQ6 binders from HCRT. FIG. 4A. Yeast expressing “empty” DQ6 was incubated with 20 μM HCRT1-13-Bio and 200 μM of the indicated non-biotinylated HCRT 15-mer peptide at pH 5.0, 30° C. for 20 hours and analyzed by flow cytometry. % Competition=100%−% binding (% binding as calculated in FIG. 3E). Error bars represent SEM from three independent experiments. Bolded letters denote previously identified 9-aa DQ6-binding registers^4, 5, 42: […], SSGAAAQPL, NHAAGILTL and NHAAGILTM, respectively. HCRT49-63 or HCRT81-95 covers <8 aa of the previously determined registers. Binding ranks for each HCRT peptide predicted by NetMHCIIpan-4.0 (trained on both elution and binding data) are shown as 100-% rank to the left. FIGS. 4B-4C. Correlation analysis for binding data acquired using “empty” DQ6 on yeast versus soluble CLIP/DQ6 protein (FIG. 4B) or versus NetMHCIIpan-4.0 prediction (FIG. 4C). Arrows indicate peptides that show binding in one method but not the other in the comparison. Open circles in FIG. 4B match open bars in FIG. 4A, indicating ligands identified by both empirical methods.
6×10^5 galactose-induced yeast were incubated at pH 5.0, 30° C. for 20 hours with 20 μM biotinylated indicator peptides in the presence of various concentrations of a competitor peptide to determine an appropriate competitor concentration for a competition assay. […] After incubation, the yeast cells were washed with PBS+1% BSA, stained with streptavidin-AF647 and analyzed by flow cytometry as described above. […]
Sufficient amounts of galactose-induced yeast cells displaying “empty” DQ6 were collected by centrifugation at 2,500 g for 3 min and resuspended in the 40 mM citrate buffer (pH 5.0) at a density of 1.5×10^4 cells μl^−1. […] DQ6-associated HCRT1-13-Bio was labeled with streptavidin-AF647 and analyzed by flow cytometry as described above. The binding of a competitor peptide to “empty” DQ6 on yeast was quantified as % competition=100%−[(MFIwith competitor−background)/(MFIwithout competitor−background)]×100%.

Substance | % competition [1] [%] | DQ6 binding (in words) [2] | further results
5862-888: DR4 ligand peptide from the SARS-CoV-2 S protein (label probably misprinted) (PPLLTDEMIAQYTSALL) | ~75 | – | –
HCRT49-63: 15-mer overlapping peptide derived from prepro-HCRT (hypocretin precursor) (LYELLHGAGNHAAGI; UniProt O43612 49-63, looked up, fragment) | – | bound DQ6 | –
HCRT81-95: 15-mer overlapping peptide derived from prepro-HCRT (hypocretin precursor) (QRLLQASGNHAAGIL; UniProt O43612 81-95, looked up, fragment) | – | bound DQ6 | –
HCRT89-103: 15-mer overlapping peptide derived from prepro-HCRT (hypocretin precursor) (NHAAGILTMGRRAGA) | – | – | % competition ([2]; 200 μM competitor vs 20 μM HCRT1-13-Bio, pH 5.0, 30° C., 20 hours): > 75%
S764-780: 17-mer overlapping peptide derived from the SARS-CoV-2 S protein (NRALTGIAVEQDKNTQE) | < 50 | – | –
S1058-1074: 17-mer overlapping peptide derived from the SARS-CoV-2 S protein (HGVVFLHVTYVPAQEKN) | ~75 | – | –
